Measurements from patent publication US5911991A, “Malarial binding site in duffy blood group protein” (New York Blood Center, Inc., priority 1996, dated 1999).
Values joined by “and” are separate entries in the source; they are usually repeats but may differ in a detail not shown here. Identical values can stand only once. Like-named read-outs stand apart in the source and are kept apart here. Ends that are not written are not given here.

Tests used:
[1] = molecular target: T1, Region II of P. falciparum EBA-175 (Plasmodium falciparum, UniProt P19214); assay: cell-based
T1 construct: expressed in transfected cells; host or cells: Cos7 cells (ATCC CRL 1651)

[2] = molecular target: rhesus Duffy blood group antigen on normal rhesus erythrocytes (rhesus monkey) (UniProt Q95LF2)
[3] = molecular target: deglycosylated rhesus Duffy blood group antigen on N-glycanase-treated rhesus erythrocytes (rhesus monkey) (UniProt Q95LF2)
[4] = molecular target: Region II of the P. knowlesi β protein expressed on the Cos7 cell surface (Plasmodium knowlesi; Herpes simplex virus) (UniProt P50493)
P. knowlesi β Region II = assay: MGSA inhibition of N-glycanase-treated rhesus erythrocyte binding, P. knowlesi β Region II; type: cell-based, Plasmodium knowlesi; settings: rhesus erythrocytes, read-out: 50% Inhibition Conc.
[5] = tested on: Region II of the P. vivax Duffy antigen binding protein; assay: MGSA inhibition of N-glycanase-treated rhesus erythrocyte binding, P. vivax Region II; type: cell-based, Plasmodium vivax
Chain of Region II of the P. vivax Duffy antigen binding protein (P22290 211-521): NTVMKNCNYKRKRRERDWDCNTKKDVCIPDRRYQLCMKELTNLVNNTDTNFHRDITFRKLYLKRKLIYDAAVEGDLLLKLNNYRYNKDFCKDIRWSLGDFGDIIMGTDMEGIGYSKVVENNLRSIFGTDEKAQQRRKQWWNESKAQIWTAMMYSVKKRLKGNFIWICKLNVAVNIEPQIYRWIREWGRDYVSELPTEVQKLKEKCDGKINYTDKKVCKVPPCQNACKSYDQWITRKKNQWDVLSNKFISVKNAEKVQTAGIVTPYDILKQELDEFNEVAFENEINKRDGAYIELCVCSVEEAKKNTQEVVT
Procedure: Blood was collected in 10% citrate/phosphate/dextrose (CPD) (Baxter, Deerfield, Ill.) and stored at 4° C. for up to four weeks. Standard blood banking methods using two antisera (anti-Fya and anti-Fyb) were used to determine the Duffy phenotypes. Duffy positive erythrocytes used in the binding assays had the Fy(a+b+) phenotype. Erythrocytes were washed three times in RPMI 1640 (GIBCO BRL) and resuspended to a hematocrit of 10% in RPMI 1640 for use in the erythrocyte binding assays. Washed human and rhesus erythrocytes were treated with neuraminidase as described earlier (Comus et al. 1985). Human and rhesus erythrocytes were deglycosylated with the N-glycanase, peptide-N-glycosidase F from Flavobacterium meningosepticum (Oxford Glycosystems). Washed erythrocytes (100 μL) were incubated with mixing for 1 h at 37° C. in 500 μL of PBS containing 10 units of N-glycanase and reaction buffer supplied by the manufacturer. The erythrocytes were washed extensively in PBS to remove the enzyme and stop the deglycosylation.
To study the efficacy of the chemokine MGSA in inhibiting binding, erythrocytes were preincubated in media containing different concentrations of MGSA (0 to 1000 nM) for 1 h at room temperature before they were used in erythrocyte binding assays as described earlier (Su et al. 1995). […]

[6] = tested on: Region II of the P. knowlesi Duffy-binding ligand (α); assay: MGSA inhibition of rhesus erythrocyte binding, P. knowlesi α Region II; type: cell-based, Plasmodium knowlesi
P. vivax Region II = settings: previously shown (Horuk et al. 1993; Chitnis et al. 1994); cited from earlier work
Chain of P. vivax Region II (P22290 211-521): as above

[7] = molecular target: T2, Duffy blood group antigen (Homo sapiens, UniProt Q16570); settings: previously shown (Horuk et al. 1993; Chitnis et al. 1994); cited from earlier work
T2 sequence (Q16570 1-336): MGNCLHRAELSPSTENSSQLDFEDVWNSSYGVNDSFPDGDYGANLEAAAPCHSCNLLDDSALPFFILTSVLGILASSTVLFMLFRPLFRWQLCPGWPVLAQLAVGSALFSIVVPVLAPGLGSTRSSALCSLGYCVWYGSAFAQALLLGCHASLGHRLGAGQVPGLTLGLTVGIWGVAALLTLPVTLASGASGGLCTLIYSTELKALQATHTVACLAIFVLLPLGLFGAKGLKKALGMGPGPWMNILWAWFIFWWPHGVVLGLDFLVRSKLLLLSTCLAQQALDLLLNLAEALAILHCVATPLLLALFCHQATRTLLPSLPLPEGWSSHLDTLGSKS

[8] = tested on: Region II of the P. knowlesi Duffy antigen binding protein (α); settings: read-out: concentration for 50% inhibition of erythrocyte binding, human erythrocytes
Text: To study the ability of peptides from the Duffy antigen to inhibit erythrocyte binding, a binding assay using the transfected Cos cells was employed, based on a method previously described (Chitnis et al. 1994). This method measures interaction between the malarial Duffy antigen binding ligand expressed by the Cos cells and Duffy protein on erythrocytes. The ability of an analyte to interfere with the cellular binding can be quantitated by comparing the number of Cos cells surrounded by rosettes of erythrocytes in the control versus the number of rosettes formed in the presence of the analyte.
Transfected Cos cells were preincubated for 1 h in a 5% CO2 incubator at 37° C. in 0.9 mL of complete Dulbecco's modified Eagle's medium (cDMEM) containing a series of concentrations (0 to 100 μM) of the peptides. One hundred microliters of human or rhesus erythrocytes at a hematocrit of 10% were added to wells containing the peptides and allowed to bind over 2 h at 37° C. in a 5% CO2 incubator. Non-adherenterythrocytes were removed by washing the Cos7 cells then with PBS. The numbers of rosettes were scored in 20 fields of view at a magnification of 40× using an inverted microscope. Inhibition curves were drawn for three independent experiments and used to determine concentrations of the peptides required to achieve 50% inhibition. […]

[9] = molecular target: Region II of the P. vivax Duffy antigen-binding protein (DABP) expressed on the Cos7 cell surface (Plasmodium vivax; Herpes simplex virus, UniProt P22290)
[10] = molecular target: Region II of the P. knowlesi β protein expressed on the Cos7 cell surface (Plasmodium knowlesi; Herpes simplex …, UniProt P50493)
[11] = molecular target: T3, Region II of the P. knowlesi Duffy antigen binding protein (alpha) expressed on the Cos7 cell surface (Plasmodium knowlesi; Herpes simplex …, UniProt P22545)
T3 sequence: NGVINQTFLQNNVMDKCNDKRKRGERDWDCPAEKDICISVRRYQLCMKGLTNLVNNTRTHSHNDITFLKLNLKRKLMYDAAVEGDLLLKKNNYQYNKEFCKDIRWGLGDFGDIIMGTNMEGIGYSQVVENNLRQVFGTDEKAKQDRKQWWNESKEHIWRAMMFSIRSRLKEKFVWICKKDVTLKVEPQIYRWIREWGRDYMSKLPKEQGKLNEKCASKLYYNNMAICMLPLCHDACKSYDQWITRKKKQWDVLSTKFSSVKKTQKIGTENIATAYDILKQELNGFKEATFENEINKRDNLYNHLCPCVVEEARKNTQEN

[12] = tested on: Rubinstein anti-Fy6 antibody; assay: Binding of the Rubinstein anti-Fy6 antibody to Duffy peptides (ELISA); set-up: species or system murine
[13] = molecular target: T3, Region II of the P. knowlesi Duffy …; remark: listed apart in the source

With “AELSPSTQNSSQLNSDLWNFSYDGNDSFPDVDYD [RHPEP34]” the IC50 [1] was over 100 µM.

For “melanoma growth stimulating activity (MGSA) (from UniProt P09341) (ligand)”, the IC50 [2] was 0.005 µM, the IC50 [3] was 0.005 µM and 0.006 µM and the IC50 [4] was over 1 µM.

With “melanoma growth stimulating activity [MGSA]” the IC50 (P. knowlesi β Region II) was over 1 µM, the “inhibition of binding of N-glycanase-treated rhesus erythrocytes to P. vivax Region II” value ([5]; in words, 50% inhibition at nanomolar concentrations) was “inhibits” and the IC50 ([5]; rhesus erythrocytes, N-glycanase treated, P. vivax DABP, separate experiments, read-out: 50% Inhibition Conc.) was 0.005 µM and 0.006 µM. The “inhibition of binding of rhesus erythrocytes to Cos cells expressing Region II of P. knowlesi α” value ([6]; in words) was “inhibit”, the IC50 ([6]; rhesus erythrocytes, treatment none, P. knowlesi α, read-out: 50% Inhibition Conc.) was 0.005 µM and the “inhibition of binding of P. vivax Region II to Duffy-positive human erythrocytes” value (P. vivax Region II) was “inhibit”. The “binding to the Duffy blood group antigen” value [7] was “binds”.

“AELSPSTENSSQLDFEDVWNSSYGVNDSFPDGDYD [HPEP35]” showed an IC50 [8] of 4.9 ± 2.3 µM and an IC50 [1] of over 100 µM.

Molecule AELSPSTQNSSQLNSDLWNFSYDGNDSFPDVDYD [RHPEP34] has an IC50 [9] of 2.1 µM, an IC50 [10] of over 100 µM and an IC50 [11] of 5.5 µM.

B1: MASSGYVLQAELSPSTENSSQLDFEDVWNSSYGVNDSFPDGDYDANLEAAAPCHSCNLLDDSALPF (peptide)
chain: MASSGYVLQAELSPSTENSSQLDFEDVWNSSYGVNDSFPDGDYDANLEAAAPCHSCNLLDDSALPF
notes: N-terminal peptide of gp-Fyα containing the HPEP35 domain
With B1 the “binding in an ELISA assay (Rubinstein antibody)” value [12] was “bind”.

Work on AELSPSTENSSQLDFEDVWNSSYGVNDSFPDGDYD [HPEP35] yielded an IC50 [9] of 2.9 µM and an IC50 [13] of 4.9 µM.
